The target of assay [1] is EphA2 extracellular domain fused to the Fc portion of an antibody (EphA2-Fc). The experiment in a line: ELISA, inhibition of ephrinA5-AP binding to immobilized EphA2-Fc; representative experiment, triplicates. Background: An ELISA detects its analyte on a solid surface through an enzyme-linked reagent.
The target is the same in assay [2]. The experiment in a line: ELISA, inhibition of ephrinA5-AP binding to immobilized EphA2-Fc.
Assay [3] addresses EphA2 endogenously expressed on PC3 prostate cancer cells (UniProt P29317). The experiment in a line: cell-based or functional assay.

Sequence of EphA2 endogenously expressed on PC3 prostate cancer cells (P29317 24-976 limits assumed): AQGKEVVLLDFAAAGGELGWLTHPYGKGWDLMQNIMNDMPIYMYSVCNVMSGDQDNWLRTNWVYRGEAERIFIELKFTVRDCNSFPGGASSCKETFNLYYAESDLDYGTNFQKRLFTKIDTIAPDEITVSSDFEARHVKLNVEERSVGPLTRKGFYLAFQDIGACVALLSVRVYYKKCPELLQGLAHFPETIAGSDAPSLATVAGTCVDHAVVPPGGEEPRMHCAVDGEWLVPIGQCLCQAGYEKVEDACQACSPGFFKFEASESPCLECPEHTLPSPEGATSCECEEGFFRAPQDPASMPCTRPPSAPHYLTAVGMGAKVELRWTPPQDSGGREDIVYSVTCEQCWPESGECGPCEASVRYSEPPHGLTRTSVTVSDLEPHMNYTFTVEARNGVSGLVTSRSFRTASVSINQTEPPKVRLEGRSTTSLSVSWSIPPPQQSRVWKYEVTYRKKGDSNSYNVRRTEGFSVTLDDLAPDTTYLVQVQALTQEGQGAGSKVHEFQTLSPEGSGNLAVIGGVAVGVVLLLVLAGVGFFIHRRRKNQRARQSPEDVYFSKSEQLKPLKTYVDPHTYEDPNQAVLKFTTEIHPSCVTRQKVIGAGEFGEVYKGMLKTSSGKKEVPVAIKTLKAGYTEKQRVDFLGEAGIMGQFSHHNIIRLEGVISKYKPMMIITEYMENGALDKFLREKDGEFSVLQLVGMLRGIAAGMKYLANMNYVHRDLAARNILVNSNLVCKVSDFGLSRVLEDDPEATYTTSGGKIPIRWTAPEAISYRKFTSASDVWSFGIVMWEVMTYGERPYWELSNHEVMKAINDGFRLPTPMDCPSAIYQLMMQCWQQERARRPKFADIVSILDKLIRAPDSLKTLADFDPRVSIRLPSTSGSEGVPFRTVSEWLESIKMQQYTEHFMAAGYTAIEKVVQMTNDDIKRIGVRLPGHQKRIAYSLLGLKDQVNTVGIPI
Sequence of m-ephrinA1 (monomer) (ligand) (P20827 19-182): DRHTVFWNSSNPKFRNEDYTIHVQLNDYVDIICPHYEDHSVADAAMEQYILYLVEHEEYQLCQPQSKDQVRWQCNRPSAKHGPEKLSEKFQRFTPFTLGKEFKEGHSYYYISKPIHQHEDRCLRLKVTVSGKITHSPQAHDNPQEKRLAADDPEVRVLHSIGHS

In general, IC50 refers to the concentration that gives 50% inhibition. Read a high IC50 as weaker potency in that assay. Turning to CGA-WLA-YRPKam dimer (N-ter) (peptide), the values for the IC50 in assay [1] and in assay [2] were 0.49 nM and 0.4 nM, respectively.
In assay [3], ephrinA1-Fc (dimer) (Fc fusion) yielded a Blig (bias factor) of 0, an EC50 PY588 of 0.81 nM, an EC50 pAKT inhib of 1.7 nM and an EC50 pY588 of 3.8 nM. For the same substance, in assay [3], the Emax PY588 (normalized to ephrinA1-Fc) was 1, the Etop pAKT inhib was 1, the IC50 PAKT turned out to be 0.62 nM and the βlig (bias factor) was determined as 0.
Turning to m-ephrinA1 (monomer) (ligand), the IC50 in assay [1] was 19 nM. Also, in assay [3], the Blig (bias factor) worked out at 0.3, the EC50 PY588 came to 28 nM, the EC50 pAKT inhib was determined as 27 nM and the EC50 pY588 was 74 nM. Besides, in assay [3], the Emax PY588 (normalized to ephrinA1-Fc) came out at 0.74, the Etop pAKT inhib was 1, the Etop pY588 (normalized to ephrinA1-Fc) is 0.36 and the IC50 PAKT amounted to 13 nM. The substance also had a βlig (bias factor) in assay [3] of 0.54. This substance also showed a concentration for half-maximal inhibition (IC50) in assay [2] of 21 nM.

Source of the values: patent US20230391826A1, “COMPOSITIONS AND METHODS FOR TREATING DISEASES” (Sanford Burnham Prebys Medical Discovery Institute, priority 2020, published 2023).
